Results taken from patent US20170342144A1 (Sanofi, published 2017).
Numbering of substitutions follows the chain as printed.

T1: human TGFβ2 (human, UniProt P61812 303-414)
T1 construct: also called TGFβ2 homodimer
T1 sequence: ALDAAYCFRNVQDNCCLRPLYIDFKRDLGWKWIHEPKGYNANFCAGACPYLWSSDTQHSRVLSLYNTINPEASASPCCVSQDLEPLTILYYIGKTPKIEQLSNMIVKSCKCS

T2: human TGFβ3 (human, UniProt P10600 301-412)
T2 sequence: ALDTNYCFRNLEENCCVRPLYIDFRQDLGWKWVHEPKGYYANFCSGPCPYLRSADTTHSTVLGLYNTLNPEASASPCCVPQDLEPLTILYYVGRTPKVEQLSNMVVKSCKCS

B1: S31G (antibody, V domains shown)
VH: QVQLVQSGAEVKKPGSSVKVSCKASGYTFSGNVISWVRQAPGQGLEWMGGVIPIVDIANYAQRFKGRVTITADESTSTTYMELSSLRSEDTAVYYCASTLGLVLDAMDYWGQGTLVTVSS
VL: ETVLTQSPGTLSLSPGERATLSCRASQSLGSSYLAWYQQKPGQAPRLLIYGASSRAPGIPDRFSGSGSGTDFTLTISRLEPEDFAVYYCQQYADSPITFGQGTRLEIK
notes: GC1008 IgG4 variant
B2: S31H (antibody, V domains shown)
VH: B1 VH with G31H
VL: B1 VL
notes: GC1008 IgG4 variant
B3: S31K (antibody, V domains shown)
VH: B1 VH with G31K
VL: B1 VL
notes: GC1008 IgG4 variant
B4: S31L (antibody, V domains shown)
VH: B1 VH with G31L
VL: B1 VL
notes: GC1008 IgG4 variant
B5: S31P (antibody, V domains shown)
VH: B1 VH with G31P
VL: B1 VL
notes: GC1008 IgG4 variant
B6: S31Q (antibody, V domains shown)
VH: B1 VH with G31Q
VL: B1 VL
notes: GC1008 IgG4 variant
B7: S31R (antibody, V domains shown)
VH: B1 VH with G31R
VL: B1 VL
notes: GC1008 IgG4 variant
B8: S31T (antibody, V domains shown)
VH: B1 VH with G31T
VL: B1 VL
notes: GC1008 IgG4 variant
B9: S31V (antibody, V domains shown)
VH: B1 VH with G31V
VL: B1 VL
notes: GC1008 IgG4 variant
B10: V55G (antibody, V domains shown)
VH: B1 VH with G31S, V55G
VL: B1 VL
notes: GC1008 IgG4 variant
B11: Y27A (antibody, V domains shown)
VH: B1 VH with Y27A, G31S
VL: B1 VL
notes: GC1008 IgG4 variant
B12: Y27D (antibody, V domains shown)
VH: B1 VH with Y27D, G31S
VL: B1 VL
notes: GC1008 IgG4 variant
B13: Y27E (antibody, V domains shown)
VH: B1 VH with Y27E, G31S
VL: B1 VL
notes: GC1008 IgG4 variant
B14: Y27F (antibody, V domains shown)
VH: B1 VH with Y27F, G31S
VL: B1 VL
notes: GC1008 IgG4 variant
B15: Y27G (antibody, V domains shown)
VH: B1 VH with Y27G, G31S
VL: B1 VL
notes: GC1008 IgG4 variant
B16: Y27I (antibody, V domains shown)
VH: B1 VH with Y27I, G31S
VL: B1 VL
notes: GC1008 IgG4 variant
B17: Y27K (antibody, V domains shown)
VH: B1 VH with Y27K, G31S
VL: B1 VL
notes: GC1008 IgG4 variant
B18: Y27L (antibody, V domains shown)
VH: B1 VH with Y27L, G31S
VL: B1 VL
notes: GC1008 IgG4 variant
B19: Y27M (antibody, V domains shown)
VH: B1 VH with Y27M, G31S
VL: B1 VL
notes: GC1008 IgG4 variant
B20: Y27N (antibody, V domains shown)
VH: B1 VH with Y27N, G31S
VL: B1 VL
notes: GC1008 IgG4 variant
B21: Y27P (antibody, V domains shown)
VH: B1 VH with Y27P, G31S
VL: B1 VL
notes: GC1008 IgG4 variant
B22: Y27Q (antibody, V domains shown)
VH: B1 VH with Y27Q, G31S
VL: B1 VL
notes: GC1008 IgG4 variant
B23: Y27R (antibody, V domains shown)
VH: B1 VH with Y27R, G31S
VL: B1 VL
notes: GC1008 IgG4 variant
B24: Y27S (antibody, V domains shown)
VH: B1 VH with Y27S, G31S
VL: B1 VL
notes: GC1008 IgG4 variant
B25: Y27T (antibody, V domains shown)
VH: B1 VH with Y27T, G31S
VL: B1 VL
notes: GC1008 IgG4 variant
B26: Y27V (antibody, V domains shown)
VH: B1 VH with Y27V, G31S
VL: B1 VL
notes: GC1008 IgG4 variant
B27: Y27W (antibody, V domains shown)
VH: B1 VH with Y27W, G31S
VL: B1 VL
notes: GC1008 IgG4 variant

The binders below were run against T3, human TGFβ1 (human, UniProt P01137 279-390) (assay: Biacore off-rate vs wt GC1008, 50 nM).
T3 construct: also called TGFβ1 homodimer
T3 sequence (P01137 279-390 limits assumed): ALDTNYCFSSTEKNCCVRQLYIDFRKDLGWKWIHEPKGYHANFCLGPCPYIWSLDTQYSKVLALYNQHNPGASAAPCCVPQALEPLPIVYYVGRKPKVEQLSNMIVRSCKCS
Outline: (§1)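 Surface plasmon resonance on a Biacore 3000 measured how fast purified antibody variants dissociated from TGFβ isoforms immobilized at about 100 RU. Variants carried single heavy- or light-chain substitutions and were produced by transient Expi293F transfection with Protein A cleanup. Samples at 50 nM were tested in duplicate, and each variant kd was divided by the wild-type control kd to give fold change.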
With B1 the kd var/kd wt was 1.1. Work on B2 yielded a kd var/kd wt of 1.5. With B3 the kd var/kd wt was 1.8. B4 gave a kd var/kd wt of 2. Binder B5 has a kd var/kd wt of 1.5. B6 showed a kd var/kd wt of 1.5. For B7, the kd var/kd wt was 1.4. B8 was tested, and the kd var/kd wt was 1.6. Binder B9 has a kd var/kd wt of 1.4. Binder B10 has a kd var/kd wt of 1.8. B11 showed a kd var/kd wt of 1.6. Binder B12 has a kd var/kd wt of 1.2. In the case of B13, the kd var/kd wt is reported as 1.2. B14 showed a kd var/kd wt of 1.3. For B15, the kd var/kd wt was 1.5. With B16 the kd var/kd wt was 1.3. B17 showed a kd var/kd wt of 1.9. Work on B18 yielded a kd var/kd wt of 1.4. For B19, the kd var/kd wt was 1.3. In the case of B20, the kd var/kd wt is reported as 1.3. B21 gave a kd var/kd wt of 1.7. B22 was tested, and the kd var/kd wt was 1.5. For B23, the kd var/kd wt was 2.3. B24 gave a kd var/kd wt of 1.6. B25 showed a kd var/kd wt of 1.4. B26 showed a kd var/kd wt of 1.7. With B27 the kd var/kd wt was 1.4.

Each binder was assayed against T1, human TGFβ2 (assay: Biacore off-rate vs wt GC1008, 50 nM).
Outline: as §1
Binder B1 has a kd var/kd wt of 1.2. B2 gave a kd var/kd wt of 1.3. Binder B3 has a kd var/kd wt of 1.2. Binder B4 has a kd var/kd wt of 1.2. Work on B5 yielded a kd var/kd wt of 1.2. B6 gave a kd var/kd wt of 1. B7 was tested, and the kd var/kd wt was 1.2. For B8, the kd var/kd wt was 1.2. With B9 the kd var/kd wt was 1. B10 was tested, and the kd var/kd wt was 1.9. B11 was tested, and the kd var/kd wt was 1.4. For B12, the kd var/kd wt was 1.3. Binder B13 has a kd var/kd wt of 1.4. Binder B14 has a kd var/kd wt of 1.2. In the case of B15, the kd var/kd wt is reported as 1.4. B16 was tested, and the kd var/kd wt was 1.3. B17 gave a kd var/kd wt of 1.4. Work on B18 yielded a kd var/kd wt of 1.4. For B19, the kd var/kd wt was 1.4. With B20 the kd var/kd wt was 1.3. Work on B21 yielded a kd var/kd wt of 1.4. In the case of B22, the kd var/kd wt is reported as 1.4. B23 gave a kd var/kd wt of 1.5. With B24 the kd var/kd wt was 1.5. For B25, the kd var/kd wt was 1.4. Binder B26 has a kd var/kd wt of 1.6. B27 showed a kd var/kd wt of 1.3.

The binders below were run against T2, human TGFβ3 (assay: Biacore off-rate vs wt GC1008, 50 nM).
Outline: as §1
Binder B1 has a kd var/kd wt of 1.1. B2 was tested, and the kd var/kd wt was 1.4. B3 was tested, and the kd var/kd wt was 1.4. Work on B4 yielded a kd var/kd wt of 1.5. With B5 the kd var/kd wt was 1.2. In the case of B6, the kd var/kd wt is reported as 1. Work on B7 yielded a kd var/kd wt of 1.5. B8 was tested, and the kd var/kd wt was 1.5. B9 showed a kd var/kd wt of 1.4. Binder B10 has a kd var/kd wt of 1.9. B11 was tested, and the kd var/kd wt was 1.5. B12 showed a kd var/kd wt of 1.2. B13 showed a kd var/kd wt of 1.1. Binder B14 has a kd var/kd wt of 1.1. Work on B15 yielded a kd var/kd wt of 1.3. For B16, the kd var/kd wt was 1.1. For B17, the kd var/kd wt was 1.3. In the case of B18, the kd var/kd wt is reported as 1.1. Binder B19 has a kd var/kd wt of 1.3. B20 showed a kd var/kd wt of 1.3. B21 showed a kd var/kd wt of 1.4. Work on B22 yielded a kd var/kd wt of 1.4. For B23, the kd var/kd wt was 1.7. Binder B24 has a kd var/kd wt of 1.6. B25 gave a kd var/kd wt of 1.5. B26 showed a kd var/kd wt of 1.5. With B27 the kd var/kd wt was 1.4.
